For the experiment, the target named is human NKG2D (Example 6 binding ELISA) (human) (UniProt P26718). As to the kind of experiment: binding ELISA of the HER2 antibody heavy chain fusion on human NKG2D. In general terms: ELISA stands for enzyme-linked immunosorbent assay.
Chain of human NKG2D (Example 6 binding ELISA) (human) (P26718 78-216 limits assumed): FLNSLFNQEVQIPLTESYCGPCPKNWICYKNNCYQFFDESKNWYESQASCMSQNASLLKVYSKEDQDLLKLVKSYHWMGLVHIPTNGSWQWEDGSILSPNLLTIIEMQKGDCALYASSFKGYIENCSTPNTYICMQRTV

B1: Her2-specific antibody heavy chain fusion to ULBP3 α1-α2 variant R162G (antibody, part only; not given: Anti-HER2 heavy and light chains, not shown: another chain or arm of the molecule; small tags and cut ends)
chain: AAEPHSLWYNFTIIHLPRHGQQWCEVQSQVDQKNFLSYDCGSDKVLSMGHLEEQLYATDAWGKQLEMLREVGQRLRLELADTELEDFTPSGPLTLQVRMSCESEADGYIRGSWQFSFDGRKFLLFDSNNRKWTVVHAGARRMKEKWEKDSGLTTFFKMVSMGDCKSWLRDFLMHRKKRLEPTAP
For orientation: EC50 (read off the curve) means the concentration that produces a half-maximal response. A high value points to a less potent agent. Regarding B1, the concentration for a half-maximal effect (EC50 (read off the curve)) amounted to 0.4 nM.

B2: Her2-specific antibody heavy chain fusion to ULBP2 α1-α2 variant R80W (antibody, part only; not given: Anti-HER2 heavy and light chains, not shown: another chain or arm of the molecule; small tags and cut ends)
chain: AAEPHSLSYDITVIPKFRPGPRWCAVQGQVDEKTFLHYDCGNKTVTPVSPLGKKLNVTTAWKAQNPVLREVVDILTEQLWDIQLENYTPKEPLTLQARMSCEQKAEGHSSGSWQFSFDGQIFLLFDSEKRMWTTVHPGARKMKEKWENDKVVAMSFHYFSMGDCIGWLEDFLMGMDSTLEPSAGAP
B2 yielded a concentration giving a half-maximal response (EC50 (read off the curve)) of 1 to 2 nM.

The values above are taken from patent US20180134765A1.
